# Data published in patent publication US20150086574A1 (CELLERANT THERAPEUTICS, published 2015).
# Experiments:
# [1] = target: T cell Immunoglobulin- and Mucin domain-containing molecule 3 (TIM3), human, on cells (human) (UniProt Q8TDQ0); assay: flow cytometry, bone marrow cells of AML patient 2, Blast population
# [2] = target: T cell Immunoglobulin- and Mucin domain-containing molecule 3 (TIM3), human, on cells (human) (UniProt Q8TDQ0); assay: cell binding (flow cytometry), Pfeiffer cells
# [3] = target: T cell Immunoglobulin- and Mucin domain-containing molecule 3 (TIM3), human, on cells (human) (UniProt Q8TDQ0); assay: flow cytometry, CD34+ cells from a set of AML samples
# [4] = target: T cell Immunoglobulin- and Mucin domain-containing molecule 3 (TIM3), human, on cells (human) (UniProt Q8TDQ0); assay: cell binding (flow cytometry), Daudi cells
# [5] = target: T cell Immunoglobulin- and Mucin domain-containing molecule 3 (TIM3), human, on cells (human) (UniProt Q8TDQ0); assay: flow cytometry, PBMCs of AML patient 3, Blast population
# [6] = target: T cell Immunoglobulin- and Mucin domain-containing molecule 3 (TIM3), human, on cells (human) (UniProt Q8TDQ0); assay: flow cytometry, PBMCs of AML patient 1, Blast population
# [7] = target: T cell Immunoglobulin- and Mucin domain-containing molecule 3 (TIM3), human, on cells (human) (UniProt Q8TDQ0); assay: flow cytometry, PBMCs of AML patient 2, Blast population
# [8] = target: T cell Immunoglobulin- and Mucin domain-containing molecule 3 (TIM3), human, on cells (human) (UniProt Q8TDQ0); assay: flow cytometry; cells not named in the table (Example 5 uses Pfeiffer cells)
# [9] = target: T cell Immunoglobulin- and Mucin domain-containing molecule 3 (TIM3), human, on cells (human) (UniProt Q8TDQ0); assay: flow cytometry, PBMCs of AML patient 3, CD34+CD38- population
# [10] = target: T cell Immunoglobulin- and Mucin domain-containing molecule 3 (TIM3), human, on cells (human) (UniProt Q8TDQ0); assay: flow cytometry, bone marrow cells of AML patient 2, CD34+CD38- population
# [11] = target: T cell Immunoglobulin- and Mucin domain-containing molecule 3 (TIM3), human, on cells (human) (UniProt Q8TDQ0); assay: cell binding (flow cytometry), CMK cells
# [12] = target: T cell Immunoglobulin- and Mucin domain-containing molecule 3 (TIM3), human, on cells (human) (UniProt Q8TDQ0); assay: flow cytometry, PBMCs of AML patient 2, CD34+CD38- population
# [13] = target: T cell Immunoglobulin- and Mucin domain-containing molecule 3 (TIM3), human, on cells (human) (UniProt Q8TDQ0); assay: flow cytometry, PBMCs of AML patient 1, CD34+CD38- population
# [14] = target: T cell Immunoglobulin- and Mucin domain-containing molecule 3 (TIM3), human, on cells (human) (UniProt Q8TDQ0); assay: flow cytometry, PBMCs of AML patient 5, CD34+CD38- population
# [15] = target: T cell Immunoglobulin- and Mucin domain-containing molecule 3 (TIM3), human, on cells (human) (UniProt Q8TDQ0); assay: cell-based or functional assay
# [16] = target: T cell Immunoglobulin- and Mucin domain-containing molecule 3 (TIM3), human, on cells (human) (UniProt Q8TDQ0); assay: flow cytometry, PBMCs of AML patient 5, Blast population
# [17] = target: T cell Immunoglobulin- and Mucin domain-containing molecule 3 (TIM3), human, on cells (human) (UniProt Q8TDQ0); assay: flow cytometry, bone marrow cells of AML patient 1, CD34+CD38- population
# [18] = target: T cell Immunoglobulin- and Mucin domain-containing molecule 3 (TIM3), human, on cells (human) (UniProt Q8TDQ0); assay: flow cytometry, bone marrow cells of AML patient 1, Blast population
# [19] = target: T cell Immunoglobulin- and Mucin domain-containing molecule 3 (TIM3), human, on cells (human) (UniProt Q8TDQ0); assay: flow cytometry, PBMCs of AML patient 4, Blast population
# [20] = target: T cell Immunoglobulin- and Mucin domain-containing molecule 3 (TIM3), human, on cells (human) (UniProt Q8TDQ0); assay: flow cytometry, PBMCs of AML patient 4, CD34+CD38- population
# Sequence of T cell Immunoglobulin- and Mucin domain-containing molecule 3 (TIM3), human, on cells (human) (Q8TDQ0 22-301 limits assumed): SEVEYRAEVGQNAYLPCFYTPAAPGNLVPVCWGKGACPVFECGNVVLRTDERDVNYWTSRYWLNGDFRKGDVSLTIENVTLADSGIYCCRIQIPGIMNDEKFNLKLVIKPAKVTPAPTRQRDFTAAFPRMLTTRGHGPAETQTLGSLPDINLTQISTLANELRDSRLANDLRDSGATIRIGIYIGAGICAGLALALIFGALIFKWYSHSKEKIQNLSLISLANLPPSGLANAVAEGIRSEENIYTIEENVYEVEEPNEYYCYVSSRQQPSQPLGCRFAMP
percent binding [1],percentage of cell binding [2],percentage of cell binding [4],percent binding [5],percent binding [6],percent binding [7],% Positive for TIM3 [8],GeoMean (Intensity of TIM3 binding) [8],percent binding [9],percent binding [10],percent binding [12],percent binding [13],Molecule,also measured
1.8%,97%,90%,1.01%,2.92%,59.3%,89.9%,198,0.17%,1.6%,64.8%,3.26%,TIM3 2E2 (antibody),Geomean [2]: 308; Positive/total (AML samples whose CD34+ cells were bound) (of 14 samples) [3]: 0; percentage of cell binding [11]: 19%
2.61%,85%,67%,0.83%,3.13%,68.1%,92.5%,83.8,0.49%,1.47%,76.4%,4.67%,"8.16C10 (antibody, IgG1, V domains shown) VH: QIQLQQSGPELVKPGASVKISYKASGYTFTDYYINWVKQKPGQGLEWIGWIYPGSGITKYNEKFKGKATLTVDSSSSTAYMQLSSLTSEDTAVYFCAIYGYDGGYAMDYWGQGTSVTVSS VL: QIVLTQSPAIMSASPGEKVTLTCSASSSVSSSYLYWYQQKPGSSPKLWIYSTSNLASGVPARFSGGGSGTSYSLTISSMEAEDAASYFCHQWSTYPYTFGGGTKLEIKR","percent binding [14]: 25%; IFN-gamma release from activated CD4+ T cells (ELISA), antibody at 5 ug/ml (fold reduction) [15]: > 2; IL-6 release from activated CD4+ T cells (ELISA), antibody at 5 ug/ml (fold reduction) [15]: > 2; percent of antibody internalized after 20 minutes, Pfeiffer cells [15]: > 50%; percent binding [16]: 25%; percent binding [17]: 19.2%; percent binding [18]: 55.6%; percent binding [19]: 78%; percent binding [20]: 87%"
